Data from patent publication US20250215039A1, “NUCLEOSIDES FOR TREATING CANCER” (PRIMEFOUR THERAPEUTICS, INC., priority 2022, published 2025).

Experiments:
Assay in all cases: not read
Details in all cases: other: substrate of human CDA, 37° C., Michaelis Menten fit, pH 7.5
not read [1] = substrate: Nc1ccn([C@@H]2O[C@H](CO)[C@@H](O)C2(F)F)c(=O)n1
Description: (§1) Transfer 7.2 μl of each of the substrate DMSO stock in step 2 into a 500 μl 96-Well V-bottom Microplate, clear SBS footprint, cat #P-96-450V-C
Add 352.8 μl assay buffer to the wells
(§2) For deaminated product compounds mix 4 μl product with 196 μl assay buffer
(§3) This was incubated at 37° C. for 1 h. 200 μl of this mixture was transferred into the assay plate to serve as the product control.
(§4) Product+buffer: mix 80 ul of the 2.5× intermediate product stocks (from step 3) with 120 ul assay buffer into product control (no enzyme) wells
(§5) Incubate the plate alongside the 20 nM CDA enzyme intermediate stock at 37° C. to temperature equilibrate reagents
(§6) Add 120 μl of the 20 nM enzyme mix into the Substrate+CDA wells and start reading at 290 nm every 30 s for about 60 min
50 and 200 uM substrate and product
(§7) In 100 mM Tris, pH 7.5, 100 mM KCl, 0.8% carryover DMSO
5 min incubation at 37° C.
(§8) Absorbance at 290 nm every 30 s at 37° C. for 1 h using FlexStation 3
(§9) Convert A290 to concentration of substrate remaining at time t after enzyme addition:
(§10) [formula] • where: • St=absorbance reading of: substrate+CDA wells at time t • So=Average absorbance reading of: substrate+buffer wells • Po=Average absorbance reading of: product+buffer wells • [S]t=initial substrate concentration • Use GraphPad to plot [substrate] against time to calculate initial velocity or slope (μMs^−1) i.e. the linear range of each curve • Express rate in s^−1 by dividing initial velocity by the total enzyme concentration.
(§11) Plot rate against [substrate] and fit data to standard Michaelis Menten equation to obtain kcat and KM parameters.

not read [2] = substrate: C[C@]1(CO)O[C@@H](n2ccc(N)nc2=O)[C@@H](O)[C@@H]1O
Description: as §1
Add 352.8 μl assay buffer to the wells
as §2, §3, §4, §5, §6
50 and 200 uM substrate and product
as §7
5 min incubation at 37° C.
as §8, §9, §10, §11

not read [3] = substrate: C[C@]1(CO)O[C@@H](n2cc(F)c(N)nc2=O)[C@@H](O)[C@@H]1O
Description: as §1
Add 352.8 μl assay buffer to the wells
as §2, §3, §4, §5, §6
50 and 200 uM substrate and product
as §7
5 min incubation at 37° C.
as §8, §9, §10, §11

not read [4] = substrate: C[C@]1(CO)O[C@@H](n2cc(F)c(N)nc2=O)C[C@@H]1O
Description: as §1
Add 352.8 μl assay buffer to the wells
as §2, §3, §4, §5, §6
50 and 200 uM substrate and product
as §7
5 min incubation at 37° C.
as §8, §9, §10, §11

B1: human cytidine deaminase (CDA) (Homo sapiens) (protein)
chain: MAQKRPACTLKPECVQQLLVCSQEAKKSAYCPYSHFPVGAALLTQEGRIFKGCNIENACYPLGICAERTAIQKAVSEGYKDFRAIAIASDMQDDFISPCGACRQVMREFGTNWPVYMTKPDGTYIVMTVQELLPSSFGPEDLQKTQ
Km (not read [1]): 520.8 µM | kcat (not read [1]): 26.8 s⁻¹ | kcat/Km (not read [1]): 0.53 (M^−1s^−1) × 10^5 | Km (not read [2]): 196 µM | kcat (not read [2]): 2.8 s⁻¹ | kcat/Km (not read [2]): 16000 M⁻¹ s⁻¹ | Km (not read [3]): 1057.8 µM | kcat (not read [3]): 6.1 s⁻¹ | kcat/Km (not read [3]): 5000 M⁻¹ s⁻¹ | Km (not read [4]): 1003 µM | kcat (not read [4]): 13.3 s⁻¹ | kcat/Km (not read [4]): 23000 M⁻¹ s⁻¹
